Measurements: publication PMC9890960, “Exploiting photosynthesis-driven P450 activity to produce indican in tobacco chloroplasts” (Frontiers in Plant Science, 2023)

T1: CYP2A6 (Homo sapiens, UniProt P11509)
T1 construct: N-terminal Arabidopsis Fd2 transit peptide fusion; transient expression in Nicotiana benthamiana chloroplasts; amplified from E. coli expression construct
T1 sequence (P11509 1-494): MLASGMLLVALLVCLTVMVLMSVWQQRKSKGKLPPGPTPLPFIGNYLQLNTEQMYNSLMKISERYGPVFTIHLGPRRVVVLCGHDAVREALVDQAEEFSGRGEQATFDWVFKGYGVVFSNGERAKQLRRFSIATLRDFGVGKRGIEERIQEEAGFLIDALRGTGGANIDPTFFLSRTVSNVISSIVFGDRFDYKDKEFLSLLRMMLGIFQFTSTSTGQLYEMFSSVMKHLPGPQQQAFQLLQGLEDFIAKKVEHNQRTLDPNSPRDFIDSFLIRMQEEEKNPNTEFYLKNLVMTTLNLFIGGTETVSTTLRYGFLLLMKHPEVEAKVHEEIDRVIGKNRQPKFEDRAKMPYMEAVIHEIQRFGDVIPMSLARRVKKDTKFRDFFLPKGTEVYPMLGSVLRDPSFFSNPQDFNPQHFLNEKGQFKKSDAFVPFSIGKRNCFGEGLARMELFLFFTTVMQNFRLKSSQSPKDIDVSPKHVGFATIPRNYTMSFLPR

T2: IsiB^6803 (Synechocystis sp. PCC 6803, UniProt P27319)
T2 construct: gene from colony PCR, pET14b, E. coli BL21(DE3), HisTrap purified; apoprotein for ITC
T2 sequence (P27319 1-170): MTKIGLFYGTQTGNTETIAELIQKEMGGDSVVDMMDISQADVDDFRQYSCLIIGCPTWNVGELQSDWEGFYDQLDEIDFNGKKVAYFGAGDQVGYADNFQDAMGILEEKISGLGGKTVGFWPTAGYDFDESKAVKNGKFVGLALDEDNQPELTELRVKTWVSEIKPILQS

T3: HsCPR^62-241 (Homo sapiens, UniProt P16435)
T3 construct: gene POR; soluble flavodoxin-like (FMN) domain, residues 62-241, pET14b, E. coli BL21(DE3), HisTrap purified; apoprotein for ITC
T3 sequence (P16435 62-241): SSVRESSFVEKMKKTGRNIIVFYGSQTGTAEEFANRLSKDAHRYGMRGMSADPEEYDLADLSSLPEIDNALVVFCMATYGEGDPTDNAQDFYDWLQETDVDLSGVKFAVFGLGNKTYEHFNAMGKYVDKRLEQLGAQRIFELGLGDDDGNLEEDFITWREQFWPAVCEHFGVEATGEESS

T4: spinach FNR (spinach) (UniProt P00455)
T4 sequence: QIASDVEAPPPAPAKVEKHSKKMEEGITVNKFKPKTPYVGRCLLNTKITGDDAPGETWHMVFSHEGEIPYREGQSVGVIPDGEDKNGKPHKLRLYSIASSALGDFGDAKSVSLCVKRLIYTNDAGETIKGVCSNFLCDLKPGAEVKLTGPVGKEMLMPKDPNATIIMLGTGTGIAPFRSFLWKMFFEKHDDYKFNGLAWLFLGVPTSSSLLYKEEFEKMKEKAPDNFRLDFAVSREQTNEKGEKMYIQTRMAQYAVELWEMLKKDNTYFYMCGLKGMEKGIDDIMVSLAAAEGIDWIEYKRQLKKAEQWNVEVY


Key:
CYP2A6 = target: T1, CYP2A6; test: indican formation in infiltrated N. benthamiana leaves, LC-MS; conditions: co-expressed with tnaA; chloroplast-targeted; product glucosylated to indican
CYP2E1 = target: T5, CYP2E1 (Homo sapiens, UniProt P05181); test: as above; conditions: co-expressed with tnaA; chloroplast-targeted; product glucosylated to indican
T5 construct: N-terminal Arabidopsis Fd2 transit peptide fusion; transient expression in Nicotiana benthamiana chloroplasts; amplified from E. coli expression construct

tnaA = target: T6, tnaA (Escherichia coli, UniProt P0A853); test: indole accumulation in infiltrated N. benthamiana leaves, UPLC-UV; set-up: species or system Nicotiana benthamiana leaves; conditions: chloroplast-targeted; endogenous tryptophan
T6 construct: synthetic gene, N-terminal chloroplast transit peptide (Arabidopsis Fd2); transient expression in Nicotiana benthamiana chloroplasts

IsiB^6803 = target: T2, IsiB^6803; test: isothermal titration calorimetry; assay type: binding; conditions: read-out: affinities
HsCPR^62-241 = target: T3, HsCPR^62-241; test: isothermal titration calorimetry; assay type: binding; conditions: read-out: affinities
spinach FNR (spinach) [1] = target: T4, spinach FNR (spinach)
spinach FNR (spinach) [2] = target: T4, spinach FNR (spinach); remark: listed apart in the source

Chain of AtFd1 (O04090 53-148): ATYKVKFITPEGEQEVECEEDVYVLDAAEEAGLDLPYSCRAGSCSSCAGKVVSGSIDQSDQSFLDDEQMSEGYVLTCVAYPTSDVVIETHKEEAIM
T6 sequence (P0A853 whole entry): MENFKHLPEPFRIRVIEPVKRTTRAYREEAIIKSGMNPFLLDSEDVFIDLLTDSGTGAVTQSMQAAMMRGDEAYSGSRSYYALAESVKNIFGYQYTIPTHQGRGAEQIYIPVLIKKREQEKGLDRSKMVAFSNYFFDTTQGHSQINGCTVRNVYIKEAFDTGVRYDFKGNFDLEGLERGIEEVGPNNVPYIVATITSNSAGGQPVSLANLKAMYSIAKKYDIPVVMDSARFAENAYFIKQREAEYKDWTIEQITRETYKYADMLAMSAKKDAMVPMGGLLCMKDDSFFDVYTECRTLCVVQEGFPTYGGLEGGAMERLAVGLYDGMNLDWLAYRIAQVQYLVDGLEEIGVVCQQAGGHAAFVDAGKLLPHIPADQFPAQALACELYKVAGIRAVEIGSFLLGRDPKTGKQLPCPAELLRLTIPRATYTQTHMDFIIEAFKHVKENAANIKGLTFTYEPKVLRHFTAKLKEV
T5 sequence (P05181 whole entry, the tested form may be a part): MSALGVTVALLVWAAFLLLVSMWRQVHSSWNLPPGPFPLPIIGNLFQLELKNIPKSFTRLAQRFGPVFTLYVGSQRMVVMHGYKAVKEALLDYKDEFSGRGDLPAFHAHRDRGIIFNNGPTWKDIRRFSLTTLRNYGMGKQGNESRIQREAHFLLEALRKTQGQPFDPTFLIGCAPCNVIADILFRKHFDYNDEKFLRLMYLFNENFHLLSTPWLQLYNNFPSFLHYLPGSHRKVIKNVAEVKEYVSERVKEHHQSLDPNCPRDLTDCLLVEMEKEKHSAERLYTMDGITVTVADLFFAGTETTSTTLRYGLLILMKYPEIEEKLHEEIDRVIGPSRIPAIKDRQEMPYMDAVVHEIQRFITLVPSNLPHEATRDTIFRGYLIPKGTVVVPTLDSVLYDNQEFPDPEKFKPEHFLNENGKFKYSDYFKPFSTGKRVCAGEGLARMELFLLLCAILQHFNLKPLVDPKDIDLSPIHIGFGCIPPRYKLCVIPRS

Row | Molecule | KM of the electron carrier in NADPH-dependent reduction by FNR (40 nM spinach FNR, carrier 1-100 µM, read by cytochrome c reduction, Michaelis-Menten fit) (spinach FNR (spinach) [1]) [µM] | Vmax of NADPH-dependent reduction of the electron carrier by FNR (40 nM spinach FNR, carrier 1-100 µM, read by cytochrome c reduction, Michaelis-Menten fit) (µmol cyt c µmol FNR^-1 s^-1) (spinach FNR (spinach) [1]) | Vmax/KM of NADPH-dependent reduction of the electron carrier by FNR (spinach FNR (spinach) [2]) | further results
1 | c1ccc2[nH]ccc2c1 [indole] | – | – | – | indican formation in infiltrated N. benthamiana leaves, LC-MS (CYP2A6): accumulation was considerably higher when any P450 was co-expressed with tnaA; indican formation in infiltrated N. benthamiana leaves, LC-MS (CYP2E1): accumulation was considerably higher when any P450 was co-expressed with tnaA
2 | N[C@@H](Cc1c[nH]c2ccccc12)C(=O)O [tryptophan] | – | – | – | indole accumulation in infiltrated N. benthamiana leaves, UPLC-UV (tnaA): Expression of tnaA alone led to detectable indole accumulation in leaf samples
3 | Cc1cc2nc3c(=O)[nH]c(=O)nc-3n(C[C@H](O)[C@H](O)[C@H](O)COP(=O)(O)O)c2cc1C [FMN] | – | – | – | Kd (IsiB^6803): 2 nM; Kd (HsCPR^62-241): 25.7 nM
4 | AtFd1 (from UniProt O04090 53-148) (natural protein) | 21.7 | 118 | 5.4 | decrease of light-driven coumarin 7-hydroxylation by CYP2A B49 in thylakoids (10 µM redox partner) on adding 0.6 µM FNR and 1.6 mM NADP+ (spinach FNR (spinach) [2]): 80%

Further lines, with some results ahead:

Row | KM of the electron carrier in NADPH-dependent reduction by FNR (40 nM spinach FNR, carrier 1-100 µM, read by cytochrome c reduction, Michaelis-Menten fit) (spinach FNR (spinach) [1]) [µM] | Vmax of NADPH-dependent reduction of the electron carrier by FNR (40 nM spinach FNR, carrier 1-100 µM, read by cytochrome c reduction, Michaelis-Menten fit) (µmol cyt c µmol FNR^-1 s^-1) (spinach FNR (spinach) [1]) | Vmax/KM of NADPH-dependent reduction of the electron carrier by FNR (spinach FNR (spinach) [2]) | Molecule | further results
5 | 9.2 | 125 | 13.6 | HsCPR^62-241 (domain or fragment) SSVRESSFVEKMKKTGRNIIVFYGSQTGTAEEFANRLSKDAHRYGMRGMSADPEEYDLADLSSLPEIDNALVVFCMATYGEGDPTDNAQDFYDWLQETDVDLSGVKFAVFGLGNKTYEHFNAMGKYVDKRLEQLGAQRIFELGLGDDDGNLEEDFITWREQFWPAVCEHFGVEATGEESS | –
6 | 17.7 | 10 | – | IsiB^6803 (natural protein) MTKIGLFYGTQTGNTETIAELIQKEMGGDSVVDMMDISQADVDDFRQYSCLIIGCPTWNVGELQSDWEGFYDQLDEIDFNGKKVAYFGAGDQVGYADNFQDAMGILEEKISGLGGKTVGFWPTAGYDFDESKAVKNGKFVGLALDEDNQPELTELRVKTWVSEIKPILQS | –
